*1 amine or outer side, *2 acyl side, *3 side chain or, on linkers, in order; H or OH if unused. [ ]: non-standard residue; d: D form. The star is where a group is joined. C20 diacid = O=C(O)CCCCCCCCCCCCCCCCCCC(=O)*; C18 diacid = O=C(O)CCCCCCCCCCCCCCCCC(=O)*; γGlu = O=C(O)[C@H](CCC(=O)[*:2])N[*:1]; AEEA = NCCOCCOCC(=O)O

The labels stand for the following.
T1: human amylin receptor (AMY3) on CHO-K1/Gal5/AMY3 cells (human, UniProt P30988 25-474; O60896 24-148)
T1 sequence (looked up) 1: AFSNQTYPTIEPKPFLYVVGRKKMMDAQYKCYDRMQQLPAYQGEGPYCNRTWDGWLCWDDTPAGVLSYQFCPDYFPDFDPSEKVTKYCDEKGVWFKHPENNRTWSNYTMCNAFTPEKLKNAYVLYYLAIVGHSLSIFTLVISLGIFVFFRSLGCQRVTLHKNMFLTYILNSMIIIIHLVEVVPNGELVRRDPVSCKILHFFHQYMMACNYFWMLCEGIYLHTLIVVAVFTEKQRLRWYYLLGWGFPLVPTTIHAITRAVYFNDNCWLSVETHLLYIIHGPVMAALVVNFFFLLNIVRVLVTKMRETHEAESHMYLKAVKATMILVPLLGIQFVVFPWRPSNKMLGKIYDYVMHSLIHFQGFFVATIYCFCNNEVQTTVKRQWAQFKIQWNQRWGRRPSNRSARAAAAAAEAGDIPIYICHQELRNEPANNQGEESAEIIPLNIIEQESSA
T1 sequence (looked up) 2: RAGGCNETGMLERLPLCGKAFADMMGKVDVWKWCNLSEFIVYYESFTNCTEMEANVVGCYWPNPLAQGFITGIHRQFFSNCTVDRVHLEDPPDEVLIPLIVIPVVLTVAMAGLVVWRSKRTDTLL

B1: calcitonin derivative M42 (peptide)
peptide: {C18 diacid}-EASQLSTAVLGRLSDELHRLQDYPRTDVGSGSP-NH2
SMILES: CC(C)C[C@H](NC(=O)[C@H](CCCNC(=N)N)NC(=O)CNC(=O)[C@H](CC(C)C)NC(=O)[C@@H](NC(=O)[C@H](C)NC(=O)[C@@H](NC(=O)[C@H](CO)NC(=O)[C@H](CC(C)C)NC(=O)[C@H](CCC(N)=O)NC(=O)[C@H](CO)NC(=O)[C@H](C)NC(=O)[C@H](CCC(=O)O)NC(=O)CCCCCCCCCCCCCCCCC(=O)O)[C@@H](C)O)C(C)C)C(=O)N[C@@H](CO)C(=O)N[C@@H](CC(=O)O)C(=O)N[C@@H](CCC(=O)O)C(=O)N[C@@H](CC(C)C)C(=O)N[C@@H](Cc1c[nH]cn1)C(=O)N[C@@H](CCCNC(=N)N)C(=O)N[C@@H](CC(C)C)C(=O)N[C@@H](CCC(N)=O)C(=O)N[C@@H](CC(=O)O)C(=O)N[C@@H](Cc1ccc(O)cc1)C(=O)N1CCC[C@H]1C(=O)N[C@@H](CCCNC(=N)N)C(=O)N[C@H](C(=O)N[C@@H](CC(=O)O)C(=O)N[C@H](C(=O)NCC(=O)N[C@@H](CO)C(=O)NCC(=O)N[C@@H](CO)C(=O)N1CCC[C@H]1C(N)=O)C(C)C)[C@@H](C)O
B2: calcitonin derivative M58 (peptide)
peptide: {C20 diacid}-E[AEEA][AEEA]ASQLSTAVLGRLSEELHRLQDYPRTDVGSGSP-NH2
SMILES: CC(C)C[C@H](NC(=O)[C@H](CCCNC(=N)N)NC(=O)CNC(=O)[C@H](CC(C)C)NC(=O)[C@@H](NC(=O)[C@H](C)NC(=O)[C@@H](NC(=O)[C@H](CO)NC(=O)[C@H](CC(C)C)NC(=O)[C@H](CCC(N)=O)NC(=O)[C@H](CO)NC(=O)[C@H](C)NC(=O)COCCOCCNC(=O)COCCOCCNC(=O)[C@H](CCC(=O)O)NC(=O)CCCCCCCCCCCCCCCCCCC(=O)O)[C@@H](C)O)C(C)C)C(=O)N[C@@H](CO)C(=O)N[C@@H](CCC(=O)O)C(=O)N[C@@H](CCC(=O)O)C(=O)N[C@@H](CC(C)C)C(=O)N[C@@H](Cc1c[nH]cn1)C(=O)N[C@@H](CCCNC(=N)N)C(=O)N[C@@H](CC(C)C)C(=O)N[C@@H](CCC(N)=O)C(=O)N[C@@H](CC(=O)O)C(=O)N[C@@H](Cc1ccc(O)cc1)C(=O)N1CCC[C@H]1C(=O)N[C@@H](CCCNC(=N)N)C(=O)N[C@H](C(=O)N[C@@H](CC(=O)O)C(=O)N[C@H](C(=O)NCC(=O)N[C@@H](CO)C(=O)NCC(=O)N[C@@H](CO)C(=O)N1CCC[C@H]1C(N)=O)C(C)C)[C@@H](C)O
B3: calcitonin derivative M25 (peptide)
peptide: {C20 diacid-γGlu}-LSQLSTLVLGRLSQELHRLQDYPRTDVGSGSP-NH2
SMILES: CC(C)C[C@H](NC(=O)CC[C@H](NC(=O)CCCCCCCCCCCCCCCCCCC(=O)O)C(=O)O)C(=O)N[C@@H](CO)C(=O)N[C@@H](CCC(N)=O)C(=O)N[C@@H](CC(C)C)C(=O)N[C@@H](CO)C(=O)N[C@H](C(=O)N[C@@H](CC(C)C)C(=O)N[C@H](C(=O)N[C@@H](CC(C)C)C(=O)NCC(=O)N[C@@H](CCCNC(=N)N)C(=O)N[C@@H](CC(C)C)C(=O)N[C@@H](CO)C(=O)N[C@@H](CCC(N)=O)C(=O)N[C@@H](CCC(=O)O)C(=O)N[C@@H](CC(C)C)C(=O)N[C@@H](Cc1c[nH]cn1)C(=O)N[C@@H](CCCNC(=N)N)C(=O)N[C@@H](CC(C)C)C(=O)N[C@@H](CCC(N)=O)C(=O)N[C@@H](CC(=O)O)C(=O)N[C@@H](Cc1ccc(O)cc1)C(=O)N1CCC[C@H]1C(=O)N[C@@H](CCCNC(=N)N)C(=O)N[C@H](C(=O)N[C@@H](CC(=O)O)C(=O)N[C@H](C(=O)NCC(=O)N[C@@H](CO)C(=O)NCC(=O)N[C@@H](CO)C(=O)N1CCC[C@H]1C(N)=O)C(C)C)[C@@H](C)O)C(C)C)[C@@H](C)O

The experiment has as its target T1, human amylin receptor (AMY3) on …. Briefly: cell-based or functional assay.
Consider B1, for which the “EC50/nM, CRE-luciferase in amylin receptor/CRE-luc CHO cells” value amounted to 0.016 nM.

Consider B2, for which the “EC50/nM, CRE-luciferase in amylin receptor/CRE-luc CHO cells” value was 0.017 nM. On to B3, for which the “EC50/nM, CRE-luciferase in amylin receptor/CRE-luc CHO cells” value was 0.016 nM.

These data come from patent EP4692114A1, “CALCITONIN ANALOGUE, AND DERIVATIVE THEREOF AND USE THEREOF” (Hangzhou Sciwind Biosciences Co., Ltd., priority 2023, dated 2024).
